# Experiments:
# [1] = target: A3B4 subunit of glycinin accumulated in transgenic soybean seeds (post-translationally processed mature form) (Glycine max (soybean)); test: SEC; soluble extract of dry mature transgenic seeds on a Hi-Load 16/600 Superdex 200 pg column in potassium phosphate buffer (35 mM potassium phosphate, pH 7.6, 0.4 M NaCl), 1.0 mL/min; fractions analysed by SDS-PAGE and western blot with anti-A3B4 serum; size by comparison with molecular weight standards
# [2] = target: recombinant luminal domain of GmVSR (soybean vacuolar sorting receptor) (Glycine max (soybean)); test: SPR; GmVSR(LU) amine-coupled on a CM5 chip (1000-1200 RU), BIACORE2000; GST fusion proteins injected 180 s, eluted with salt buffer 180 s, 25 °C, 30 uL/min; control flow cell subtracted; three independent experiments
stoichiometry N [1],Kd [2] [nM],Molecule
6,,A3B4 subunit of glycinin accumulated in transgenic soybean seeds (post-translationally processed mature form) (natural protein)
,98,PQESQKRAVA [GST fused with the 10-residue C-terminal peptide of A1aB1b]
